Laboratory results as given in the supplement of paper PMC11865577.

Legend:
Assay in all cases: pull-down binding Z-score (relative to library population); higher = stronger binding
[1] = test system: G-clamp-N3 (biotin conjugate); conditions: RNA library: Library-1 (pre-miRNA loops + repeats)
Procedure, shortened: (§1)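 Cy5- or Cy3-end-labelled RNA library (1 μg) was heat-folded in phosphate/NaCl/KCl buffer and incubated 60 min at 25 °C with streptavidin beads carrying 100 pmol biotin-conjugated small molecule. After three washes, bound RNA was eluted in hot SDS and hybridised 20 h at 55.5 °C to a DNA barcode microarray. Binding was scored by subtracting a beads-only control, averaging barcoded replicate probes after dropping highest and lowest, and converting to a Z-score against library mean and standard deviation.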

[2] = test system: TO-3-N3 (biotin conjugate); conditions: RNA library: Library-2
Procedure, shortened: as §1

[3] = test system: TO-3-N3-2 (biotin conjugate); conditions: RNA library: Library-2
Procedure, shortened: as §1

TO-N3 (biotin conjugate) = conditions: RNA library: Library-2
Procedure, shortened: as §1

[4] = test system: TO-N3-2 (biotin conjugate); conditions: RNA library: Library-2
Procedure, shortened: as §1

Sequence	pull-down binding Z-score [1]	pull-down binding Z-score [2]	pull-down binding Z-score [3]	pull-down binding Z-score (TO-N3 (biotin conjugate))	pull-down binding Z-score [4]
UACAUAGUUCAUGCUGAGGCCGGGAUUUCAUGCAGAAAACUGGUUGCAAAAGGUGCUGAAG [hsa-mir-6085]	-0.725	-0.189	0.378	0.573	1.13
AGGCUUGGCACUUGAGGGAAAGCCU [hsa-mir-8059]	2.67	0.451	0.0114	0.646	0.469
GCGGGGGUGGGGGCCUCGCCCUGCUUGGGCCCUCCCUGAC [hsa-mir-6821]	0.419	2.12	1.75	2.47	2.31
CAAGUCCGUCUUCCUGAGAGGUUUG [hsa-mir-133b]	-0.401	-0.412	-0.284	-0.0806	0.836
UAGACAAUGGUUUCAUCAUUUCGUCUG [hsa-mir-4427]	-0.055	-0.317	-0.103	-0.379	-0.052
UCCUGAGACAGGA [hsa-mir-4261]	-0.47	-0.563	-0.5	-0.807	-1.02
GGAGGCCCCGCUCUGCUGCCGACCCUGUGGAGCGGAGGGUGAAGCCUCC [hsa-mir-3180-4]	1.15	0.3	0.118	0.553	1.24
CCCACCUCCAGCAUUGGG [hsa-mir-1267]	-0.68	-0.458	-0.393	-0.663	-0.466
UUUGCCGUUAAAAGUAAUGGCA [hsa-mir-548a-2]	-1.31	-0.228	-0.17	-0.368	-0.106
AGCAGUACCAGACGGUUCUGUGG [hsa-mir-3198-1]	-0.487	-0.321	-0.0913	0.0664	0.525
UGAGUGGCAUAAUCAGAGUACAAUUUGAGUCAUGCCCAUACAUCA [hsa-mir-23c]	-1.1	-0.338	0.0374	-0.271	0.0219
UGAAUAUGUAAUAUAAGUGUAUUG [hsa-mir-450b]	0.397	0.214	0.32	0.261	-0.284
CUGUGGUCUAACCUUUCCCAUCU [hsa-mir-6828]	-1.45	-0.163	0.125	0.169	0.334
CAGGGAACUUUAAAACC [hsa-mir-4324]	0.493	0.41	0.387	0.483	0.306
CCUUCGCUUUAUUUGUGACGAAUC [hsa-mir-154]	-0.922	-0.799	-0.374	-0.676	-0.185
GAACUUUUACGGUGAACCAGGAGGUUC [hsa-mir-629]	-0.428	0.0537	-0.139	-0.0515	-0.0865
CUGUUGUUUCAGCUCGACAACAACAG [hsa-mir-3937]	0.361	-0.212	-0.335	-0.333	-0.505
AUAGUUUUAGGGUCAUACCCCAUCUUGGAGAUAACUAU [hsa-let-7f-2]	-1.63	-0.384	0.00457	-0.497	-0.745

Sequence	pull-down binding Z-score [1]	pull-down binding Z-score [2]	pull-down binding Z-score [3]	pull-down binding Z-score (TO-N3 (biotin conjugate))	pull-down binding Z-score [4]
CAAGUUAUCACUGAGCGACUUC [hsa-mir-4664]	-1.2	-0.47	-0.235	-0.349	-0.296
AGAUCCUGUCUUUCGUAAUCAGCAGCU [hsa-mir-222]	-0.246	0.279	0.00116	0.344	0.228
UUGUUCUGAUGUACUACGACAA [hsa-mir-7-3]	-1.28	-0.716	-0.294	-0.672	-0.186
GUGGGUUGUGAGGACUGAGGCCAGACCCAC [hsa-mir-181d]	1.5	-0.504	-0.244	-0.139	0.803
UUGAAUCACACACACAUUUCAA [hsa-mir-4803]	-0.451	-0.208	-0.154	-0.366	-0.644
GAUUGCUAAUAGUACCAAUC [hsa-mir-34c]	-0.0934	0.967	-0.216	0.79	-0.636
CCGGGGCAGGAGACCCCGCG [hsa-mir-1470]	-0.305	-0.389	-0.34	-0.351	0.265
GCUGCUGCCCCAGAGGCCCAGCAGGUGUCCAGAAC [hsa-mir-6750]	-0.884	0.55	0.49	1.18	1.93
CUGGGGGAAGGCUCCAGACCCCAGCCU [hsa-mir-4267]	-0.401	0.793	0.331	1.19	1.37
CGUUCGCUUUAUUUAUGGCGCACA [hsa-mir-323a]	-0.817	-0.155	-0.271	-0.267	0.118
UCCACCUAGACGGGCCUGGGUCAA [hsa-mir-4698]	-0.781	0.349	-0.0391	0.552	0.907
GGGAGCAUGAACAAUGUUUCUCACUCCC [hsa-mir-3162]	1.01	0.186	-0.49	0.299	1.13
AGCUGGGGCCGGGU [hsa-mir-4281]	0.118	1.37	0.821	1.63	1.27
CUUGCUUUGAAACUAAAGAAGUAAG [hsa-mir-302a]	0.749	-0.0041	-0.131	-0.193	-0.319
CAGUGAGCUAUGAUCAUGUCCCUG [hsa-mir-1254-2]	0.526	0.0243	-0.1	0.105	0.362
GCCAGUGUUCAAGGGCCCCUCCUCUAGUACUCCCUGUUUGUGUUCUGCCACUGA [hsa-mir-6857]	-0.797	0.324	0.527	1.1	1.37
ACUCCUAGGUCACGGAAGU [hsa-mir-6838]	-0.404	-0.255	-0.33	-0.23	-0.0545
AGUGGUGCAAUCUCAGUUCACU [hsa-mir-3135a]	-0.112	0.121	-0.238	-0.0142	-0.196
